In the supplement of paper PMC10065799, “High-throughput profiling of sequence recognition by tyrosine kinases and SH2 domains using bacterial peptide display” (eLife, 2023):

How the values were obtained:
AncSZ = experiment: phosphorylation enrichment, bacterial display (enrichment ratio); higher = better substrate or ligand; peptides without Tyr show the background
EPHB1 = EPHB1 (UniProt P54762); experiment: as above
EPHB2 = EPHB2 (UniProt P29323); experiment: as above
FGFR1 = FGFR1 (UniProt P11362); experiment: as above
FGFR3 = FGFR3 (UniProt P22607); experiment: as above
Fer (mouse) = experiment: as above
Fes = Fes (UniProt P07332); experiment: as above
Fyn = Fyn (UniProt P06241); experiment: as above
Hck = Hck (UniProt P08631); experiment: as above
Jak2 = Jak2 (UniProt O60674); experiment: as above
MERTK = MERTK (UniProt Q12866); experiment: as above
c-Abl (mouse) = experiment: as above
c-Src = experiment: as above
Grb2 SH2 = Grb2 SH2 (UniProt P62993); experiment: SH2 binding enrichment of the phosphorylated peptide, bacterial display (enrichment ratio); higher = better substrate or ligand; peptides without Tyr show the background
SHP2-C SH2 = experiment: as above
c-Src SH2 = experiment: as above
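Throughout, for SH2 binding enrichment of the phosphorylated peptide, bacterial display: peptide library displayed on the E. coli surface as eCPX fusions, selected cells deep-sequenced, score is each peptide's frequency after selection divided by its frequency in the input.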
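Throughout, for phosphorylation enrichment, bacterial display: 11-residue human phosphosite peptides and single-mutation variants displayed on the E. coli surface, counted by deep sequencing, each peptide's frequency after selection divided by its frequency in the unselected input library; frequency after pTyr selection over input frequency; kinase dosed for 20-30% of maximal phosphorylation in three min.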

Sequence of Jak2 (O60674 whole entry, looked up): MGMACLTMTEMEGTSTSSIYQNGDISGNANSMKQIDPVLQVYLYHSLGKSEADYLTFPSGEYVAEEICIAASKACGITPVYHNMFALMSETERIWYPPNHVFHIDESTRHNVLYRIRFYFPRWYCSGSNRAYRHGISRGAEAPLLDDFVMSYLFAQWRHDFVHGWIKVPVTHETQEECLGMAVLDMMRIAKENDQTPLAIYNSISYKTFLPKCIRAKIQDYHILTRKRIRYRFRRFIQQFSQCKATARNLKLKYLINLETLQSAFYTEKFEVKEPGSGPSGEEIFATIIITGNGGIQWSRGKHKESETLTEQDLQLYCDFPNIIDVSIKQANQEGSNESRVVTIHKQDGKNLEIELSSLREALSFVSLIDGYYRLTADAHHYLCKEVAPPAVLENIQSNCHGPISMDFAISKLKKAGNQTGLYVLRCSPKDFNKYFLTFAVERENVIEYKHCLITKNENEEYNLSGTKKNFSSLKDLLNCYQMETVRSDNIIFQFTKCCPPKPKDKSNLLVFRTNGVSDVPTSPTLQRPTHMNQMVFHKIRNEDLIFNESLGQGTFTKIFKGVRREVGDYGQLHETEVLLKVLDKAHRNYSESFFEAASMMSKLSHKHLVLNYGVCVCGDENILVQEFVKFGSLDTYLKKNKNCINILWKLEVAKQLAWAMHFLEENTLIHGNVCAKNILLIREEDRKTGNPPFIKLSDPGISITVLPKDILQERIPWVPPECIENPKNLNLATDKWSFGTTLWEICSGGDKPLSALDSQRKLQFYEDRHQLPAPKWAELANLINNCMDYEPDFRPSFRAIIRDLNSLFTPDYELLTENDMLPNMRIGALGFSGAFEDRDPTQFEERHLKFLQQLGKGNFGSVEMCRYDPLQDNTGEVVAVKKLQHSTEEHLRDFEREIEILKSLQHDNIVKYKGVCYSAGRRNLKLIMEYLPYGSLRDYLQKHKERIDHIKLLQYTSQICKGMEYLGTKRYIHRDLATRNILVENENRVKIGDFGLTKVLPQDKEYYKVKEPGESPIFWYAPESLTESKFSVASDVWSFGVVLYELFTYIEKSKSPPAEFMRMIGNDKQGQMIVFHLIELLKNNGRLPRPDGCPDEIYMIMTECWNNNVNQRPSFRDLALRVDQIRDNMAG
Sequence of Hck (P08631 whole entry, looked up): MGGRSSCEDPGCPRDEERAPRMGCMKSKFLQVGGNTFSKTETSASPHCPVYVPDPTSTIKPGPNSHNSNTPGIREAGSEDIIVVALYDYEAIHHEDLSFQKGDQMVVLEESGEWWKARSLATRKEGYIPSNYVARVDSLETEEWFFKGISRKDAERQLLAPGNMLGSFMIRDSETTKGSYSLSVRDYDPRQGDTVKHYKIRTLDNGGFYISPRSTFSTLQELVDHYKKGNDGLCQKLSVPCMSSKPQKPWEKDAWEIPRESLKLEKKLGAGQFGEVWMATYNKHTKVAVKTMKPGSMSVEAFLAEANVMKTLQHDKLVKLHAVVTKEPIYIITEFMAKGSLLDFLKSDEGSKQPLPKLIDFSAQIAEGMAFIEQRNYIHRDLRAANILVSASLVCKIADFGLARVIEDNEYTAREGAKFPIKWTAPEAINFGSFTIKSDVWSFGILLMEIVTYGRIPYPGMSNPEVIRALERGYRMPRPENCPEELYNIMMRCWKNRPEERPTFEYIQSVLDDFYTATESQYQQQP
Sequence of FGFR1 (P11362 whole entry, looked up): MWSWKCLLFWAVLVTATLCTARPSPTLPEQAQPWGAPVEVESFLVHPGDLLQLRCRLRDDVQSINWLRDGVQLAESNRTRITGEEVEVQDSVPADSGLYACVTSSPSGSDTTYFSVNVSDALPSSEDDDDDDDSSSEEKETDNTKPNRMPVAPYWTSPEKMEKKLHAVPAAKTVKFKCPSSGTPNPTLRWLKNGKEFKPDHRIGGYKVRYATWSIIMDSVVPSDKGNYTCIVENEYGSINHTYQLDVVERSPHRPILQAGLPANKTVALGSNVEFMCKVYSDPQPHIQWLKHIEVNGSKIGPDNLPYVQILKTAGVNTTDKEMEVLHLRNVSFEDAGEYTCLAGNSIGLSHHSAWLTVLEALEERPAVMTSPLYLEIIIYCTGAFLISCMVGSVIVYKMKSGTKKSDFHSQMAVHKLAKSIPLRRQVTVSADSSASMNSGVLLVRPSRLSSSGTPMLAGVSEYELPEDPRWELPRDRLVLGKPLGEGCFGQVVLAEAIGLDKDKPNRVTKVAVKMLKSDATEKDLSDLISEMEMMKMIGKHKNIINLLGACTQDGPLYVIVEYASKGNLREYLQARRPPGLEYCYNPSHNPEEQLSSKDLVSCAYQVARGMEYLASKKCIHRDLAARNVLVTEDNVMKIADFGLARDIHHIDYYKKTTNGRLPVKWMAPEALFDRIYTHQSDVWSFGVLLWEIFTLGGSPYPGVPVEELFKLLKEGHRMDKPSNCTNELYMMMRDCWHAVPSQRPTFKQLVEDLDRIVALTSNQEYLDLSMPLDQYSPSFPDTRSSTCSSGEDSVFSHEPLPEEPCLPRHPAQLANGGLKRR
Sequence of EPHB2 (P29323 whole entry, looked up): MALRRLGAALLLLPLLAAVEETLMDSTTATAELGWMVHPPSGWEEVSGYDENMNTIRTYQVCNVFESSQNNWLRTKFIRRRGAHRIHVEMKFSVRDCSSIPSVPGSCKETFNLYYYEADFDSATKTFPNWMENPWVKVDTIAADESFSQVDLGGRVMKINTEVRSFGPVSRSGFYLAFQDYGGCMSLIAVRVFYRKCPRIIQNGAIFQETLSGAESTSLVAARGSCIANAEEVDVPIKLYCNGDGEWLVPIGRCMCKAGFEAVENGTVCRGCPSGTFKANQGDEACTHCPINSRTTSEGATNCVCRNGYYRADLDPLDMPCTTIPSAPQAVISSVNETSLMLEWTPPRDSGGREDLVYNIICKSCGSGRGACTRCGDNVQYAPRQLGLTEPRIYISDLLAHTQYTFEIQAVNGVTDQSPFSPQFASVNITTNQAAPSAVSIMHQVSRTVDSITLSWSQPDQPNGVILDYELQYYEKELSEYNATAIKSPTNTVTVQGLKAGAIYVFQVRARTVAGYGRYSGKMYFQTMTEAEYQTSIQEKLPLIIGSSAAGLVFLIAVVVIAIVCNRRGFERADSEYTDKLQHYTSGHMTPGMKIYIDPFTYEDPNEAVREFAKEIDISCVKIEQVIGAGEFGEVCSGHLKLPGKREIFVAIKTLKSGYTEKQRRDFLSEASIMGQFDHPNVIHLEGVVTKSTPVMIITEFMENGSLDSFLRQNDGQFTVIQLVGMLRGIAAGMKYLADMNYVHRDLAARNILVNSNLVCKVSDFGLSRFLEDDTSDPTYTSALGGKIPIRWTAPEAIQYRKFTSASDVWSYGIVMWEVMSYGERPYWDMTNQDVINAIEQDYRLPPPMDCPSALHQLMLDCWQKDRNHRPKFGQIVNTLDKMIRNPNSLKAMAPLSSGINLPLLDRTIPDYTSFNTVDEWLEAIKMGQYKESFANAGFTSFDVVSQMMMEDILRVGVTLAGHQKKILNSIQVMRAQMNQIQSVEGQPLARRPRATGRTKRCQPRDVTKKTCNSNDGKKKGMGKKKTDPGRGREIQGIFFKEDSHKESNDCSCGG
Sequence of Fyn (P06241 whole entry, looked up): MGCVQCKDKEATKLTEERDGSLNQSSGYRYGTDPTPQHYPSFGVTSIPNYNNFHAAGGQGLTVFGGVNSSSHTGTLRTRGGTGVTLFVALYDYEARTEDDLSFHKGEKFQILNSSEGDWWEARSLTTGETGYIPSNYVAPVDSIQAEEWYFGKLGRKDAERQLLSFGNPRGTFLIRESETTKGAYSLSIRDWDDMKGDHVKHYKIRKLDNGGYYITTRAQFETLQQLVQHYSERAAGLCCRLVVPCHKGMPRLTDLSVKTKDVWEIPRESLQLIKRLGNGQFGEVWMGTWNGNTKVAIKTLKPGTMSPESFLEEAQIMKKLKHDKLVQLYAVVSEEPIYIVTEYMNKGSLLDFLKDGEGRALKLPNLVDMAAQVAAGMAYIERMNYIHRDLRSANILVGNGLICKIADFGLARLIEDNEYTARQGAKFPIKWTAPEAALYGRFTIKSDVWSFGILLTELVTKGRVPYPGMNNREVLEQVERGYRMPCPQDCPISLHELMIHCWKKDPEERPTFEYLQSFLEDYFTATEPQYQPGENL
Sequence of MERTK (Q12866 whole entry, looked up): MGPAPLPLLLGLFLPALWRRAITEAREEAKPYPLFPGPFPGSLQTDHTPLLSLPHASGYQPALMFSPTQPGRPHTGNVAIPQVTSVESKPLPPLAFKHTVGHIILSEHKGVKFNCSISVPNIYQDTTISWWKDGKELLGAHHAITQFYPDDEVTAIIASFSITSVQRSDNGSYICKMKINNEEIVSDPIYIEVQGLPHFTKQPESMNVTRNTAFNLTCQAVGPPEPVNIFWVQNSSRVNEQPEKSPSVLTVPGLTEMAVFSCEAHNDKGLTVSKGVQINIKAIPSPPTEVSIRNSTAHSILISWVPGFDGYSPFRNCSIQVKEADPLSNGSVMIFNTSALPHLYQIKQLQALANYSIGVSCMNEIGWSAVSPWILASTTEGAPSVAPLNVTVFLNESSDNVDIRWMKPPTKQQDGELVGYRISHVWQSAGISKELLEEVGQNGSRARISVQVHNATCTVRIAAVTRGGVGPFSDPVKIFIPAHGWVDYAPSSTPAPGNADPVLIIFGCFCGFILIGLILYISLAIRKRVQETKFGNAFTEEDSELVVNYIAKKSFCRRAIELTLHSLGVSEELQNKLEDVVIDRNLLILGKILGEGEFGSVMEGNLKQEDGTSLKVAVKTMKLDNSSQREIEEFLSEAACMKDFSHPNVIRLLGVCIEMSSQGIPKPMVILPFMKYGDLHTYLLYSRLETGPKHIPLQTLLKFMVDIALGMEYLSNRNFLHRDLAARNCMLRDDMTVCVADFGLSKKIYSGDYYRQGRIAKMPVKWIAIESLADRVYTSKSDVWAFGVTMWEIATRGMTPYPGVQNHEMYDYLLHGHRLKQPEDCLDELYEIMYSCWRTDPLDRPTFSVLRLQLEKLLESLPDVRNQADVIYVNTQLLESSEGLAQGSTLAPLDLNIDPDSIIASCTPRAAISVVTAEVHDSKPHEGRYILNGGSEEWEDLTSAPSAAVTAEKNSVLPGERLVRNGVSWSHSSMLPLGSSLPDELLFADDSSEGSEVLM

SH2 binding enrichment (Grb2 SH2) | SH2 binding enrichment (SHP2-C SH2) | SH2 binding enrichment (c-Src SH2) | Sequence | phosphorylation enrichment (AncSZ) | phosphorylation enrichment (EPHB1) | phosphorylation enrichment (EPHB2) | phosphorylation enrichment (FGFR1) | phosphorylation enrichment (FGFR3) | phosphorylation enrichment (Fer (mouse)) | phosphorylation enrichment (Fes) | phosphorylation enrichment (Fyn) | phosphorylation enrichment (Hck) | phosphorylation enrichment (Jak2) | phosphorylation enrichment (MERTK) | phosphorylation enrichment (c-Abl (mouse)) | phosphorylation enrichment (c-Src)
0.796 | 0.872 | 0.5 | MFRAGYDTKQE [F10_Y407_C404R] | 0.671 | 0.475 | 0.447 | 0.379 | 0.448 | 0.391 | 0.761 | 0.395 | 0.383 | 0.589 | 0.335 | 0.497 | 0.332
0.971 | 0.731 | 1.94 | VATRWYWSPEL [CDKL5_Y177_R178W] | 1.06 | 4.61 | 3.81 | 5.92 | 5.13 | 0.512 | 1.15 | 0.464 | 0.532 | 1.14 | 6.3 | 0.771 | 0.647
0.823 | 0.542 | 0.459 | SLMGCYNLTFM [HS6ST3_Y323_V320M] | 1.46 | 0.65 | 0.655 | 0.546 | 1.02 | 1.35 | 1.63 | 0.592 | 0.724 | 1.61 | 0.56 | 1.14 | 0.955
0.945 | 0.695 | 1.01 | KNNDGYIDYAE [MCFD2_Y135] | 1.17 | 0.538 | 0.658 | 0.606 | 0.736 | 0.464 | 1.13 | 0.536 | 0.625 | 1.01 | 0.474 | 0.656 | 0.465
0.653 | 0.8 | 0.577 | GQAPGYSFTAA [CYCS_Y47_YF] | 0.502 | 0.354 | 0.427 | 0.422 | 0.428 | 0.364 | 0.509 | 0.393 | 0.416 | 0.471 | 0.389 | 0.504 | 0.503
0.904 | 0.671 | 1.79 | MASTSYDYCRV [BST2_Y6] | 1.11 | 4.88 | 3.51 | 1.27 | 0.851 | 2.69 | 0.68 | 0.481 | 0.905 | 0.687 | 0.904 | 0.956 | 0.577
0.811 | 0.696 | 0.567 | TSNQEYLDVSM [FGFR1_Y766_L769V] | 1.15 | 0.866 | 0.681 | 1.24 | 1.05 | 0.561 | 1.06 | 0.504 | 0.56 | 0.958 | 0.441 | 0.684 | 0.415
1.53 | 1.55 | 1.13 | LGKLIYPVGFW [NTHL1_Y177] | 1.6 | 0.999 | 1.02 | 0.816 | 1.13 | 0.557 | 1.87 | 0.752 | 0.746 | 1.67 | 0.634 | 1.27 | 1.35
0.766 | 0.681 | 0.506 | DWQQEYVLNES [TGM1_Y267_R264Q] | 2.03 | 1.42 | 0.615 | 1.11 | 0.996 | 0.434 | 1.45 | 0.648 | 0.6 | 0.957 | 0.427 | 0.788 | 2.73
0.937 | 0.677 | 0.672 | TDTAAYEERVR [SPTB_Y474] | 0.931 | 0.692 | 0.767 | 0.581 | 0.494 | 0.407 | 1.25 | 0.795 | 0.686 | 1.9 | 1.2 | 1.2 | 0.753
0.775 | 4.42 | 3.05 | ELRGTYTSLQQ [KIF3C_Y574] | 0.705 | 0.398 | 0.481 | 0.489 | 0.535 | 0.428 | 0.869 | 0.978 | 0.956 | 0.777 | 0.434 | 0.684 | 1.39
0.752 | 1.35 | 3.85 | NVDGKYSYLKV [GRM3_Y478_G475D] | 0.705 | 0.569 | 0.59 | 0.563 | 0.507 | 0.515 | 0.878 | 0.444 | 0.554 | 0.825 | 0.559 | 0.557 | 0.432
0.865 | 0.8 | 0.65 | PRPACYPSTVS [CACNA1C_Y1832_G1831C] | 0.554 | 0.575 | 0.435 | 0.49 | 0.598 | 0.381 | 0.792 | 0.51 | 0.49 | 0.721 | 0.356 | 0.437 | 0.484
1.14 | 0.876 | 0.759 | QNTVDYFDLFG [PTPN11_Y62_G60V_YF] | 2.35 | 2.34 | 1.16 | 16.2 | 12.3 | 0.609 | 1.44 | 0.614 | 0.595 | 2.22 | 0.646 | 0.988 | 0.619
0.813 | 0.612 | 0.487 | YSKDIYKRVTG [PANK2_Y405_N404I] | 0.5 | 0.38 | 0.419 | 0.409 | 0.342 | 0.551 | 0.51 | 0.415 | 0.487 | 0.447 | 0.401 | 0.435 | 0.394
0.901 | 0.914 | 0.339 | RLQEDYDHSFF [ESD_Y258_G257D_YF] | 1.74 | 1.21 | 0.912 | 0.842 | 1.2 | 0.919 | 1.55 | 0.792 | 0.869 | 1.65 | 0.649 | 1.19 | 1.07
0.766 | 0.516 | 0.581 | EEQKKYFNATK [SCN5A_Y1494_M1498T_YF] | 0.607 | 0.356 | 0.479 | 0.49 | 0.582 | 0.366 | 0.729 | 0.34 | 0.379 | 0.6 | 0.269 | 0.459 | 0.377

SH2 binding enrichment (Grb2 SH2) | SH2 binding enrichment (SHP2-C SH2) | SH2 binding enrichment (c-Src SH2) | Sequence | phosphorylation enrichment (AncSZ) | phosphorylation enrichment (EPHB1) | phosphorylation enrichment (EPHB2) | phosphorylation enrichment (FGFR1) | phosphorylation enrichment (FGFR3) | phosphorylation enrichment (Fer (mouse)) | phosphorylation enrichment (Fes) | phosphorylation enrichment (Fyn) | phosphorylation enrichment (Hck) | phosphorylation enrichment (Jak2) | phosphorylation enrichment (MERTK) | phosphorylation enrichment (c-Abl (mouse)) | phosphorylation enrichment (c-Src)
0.891 | 0.696 | 0.698 | HKGASYAFRLS [PTPRD_Y891_V892A] | 1.06 | 0.935 | 0.581 | 0.66 | 1.11 | 0.645 | 0.962 | 0.838 | 0.49 | 0.827 | 0.525 | 0.846 | 0.785
0.863 | 0.646 | 0.547 | FSEVRYMKEPF [HIPK4_Y170_V171M_YF] | 0.677 | 0.473 | 0.459 | 0.451 | 0.48 | 0.36 | 0.821 | 0.379 | 0.438 | 0.741 | 0.32 | 0.66 | 0.388
0.921 | 0.854 | 0.891 | FQVRRYDCDCD [CRYGS_Y21_G18V] | 1.19 | 0.583 | 0.592 | 0.557 | 0.758 | 0.497 | 1.32 | 0.563 | 0.498 | 1.32 | 0.553 | 0.788 | 0.622
0.659 | 0.663 | 0.349 | SVTCTYSPALI [TP53_Y126_N131I] | 1.64 | 0.906 | 0.779 | 0.534 | 0.954 | 1.09 | 1.8 | 0.646 | 0.804 | 1.52 | 0.602 | 1.13 | 0.817
0.807 | 0.857 | 0.488 | AVLSLCASGRT [ACTA2_Y145_Y145C] | 0.898 | 0.58 | 0.639 | 0.505 | 0.592 | 0.545 | 0.955 | 0.366 | 0.448 | 0.959 | 0.402 | 0.606 | 0.357
0.961 | 0.511 | 0.493 | HSVLQYVGGVM [FGGY_Y136] | 1.05 | 0.943 | 0.977 | 0.944 | 1.18 | 0.73 | 1.48 | 0.776 | 0.833 | 1.11 | 0.986 | 0.846 | 0.738
0.745 | 0.699 | 2 | FYRNVYHLASV [RBL1_Y796_K794N] | 0.728 | 0.611 | 0.587 | 0.464 | 0.556 | 0.417 | 0.635 | 1.93 | 0.648 | 0.484 | 0.371 | 0.429 | 1
0.758 | 0.775 | 1.59 | NRDNTYNRVSE [FGA_Y127] | 0.603 | 0.472 | 0.407 | 0.38 | 0.469 | 0.395 | 0.728 | 0.425 | 0.457 | 0.678 | 0.329 | 0.762 | 0.405
0.632 | 0.639 | 0.418 | KINKMYSDRAM | 0.53 | 0.311 | 0.377 | 0.417 | 0.371 | 0.336 | 0.624 | 0.361 | 0.396 | 0.419 | 0.423 | 0.467 | 0.345
0.868 | 0.864 | 0.611 | RLASVYTKRCS [CPT2_Y508_P504L] | 0.917 | 0.706 | 0.501 | 0.4 | 0.695 | 0.414 | 0.889 | 0.528 | 0.578 | 0.739 | 0.316 | 0.643 | 0.557
0.726 | 0.916 | 0.437 | SDMGQYQCLVF [AXL_Y115_T112M] | 1.3 | 0.923 | 0.991 | 2.05 | 1.89 | 3.38 | 1.22 | 2.35 | 3.14 | 0.933 | 1.84 | 1.57 | 1.97
0.957 | 0.748 | 2.44 | SRDPFYEMLAA [CYTH1_Y382] | 1.21 | 3.5 | 1.71 | 5.1 | 3.2 | 12.4 | 1.26 | 2.55 | 4.88 | 0.729 | 7.89 | 0.681 | 2.96
0.964 | 0.917 | 1.49 | KLPDAYEPLIL [G6PD_Y437_R439P] | 1.14 | 0.55 | 0.494 | 0.53 | 0.674 | 2.5 | 1.1 | 0.502 | 1.08 | 0.921 | 0.498 | 0.79 | 0.752
8.54 | 0.611 | 0.837 | LHAAAYQNALA [UQCRC2_Y182_R183Q] | 1.01 | 0.433 | 0.423 | 0.512 | 0.476 | 0.427 | 0.715 | 0.474 | 0.45 | 0.646 | 0.4 | 0.495 | 0.393
0.901 | 1.03 | 0.499 | LQTFRYHGHSM [PDHA1_Y289_YF] | 0.664 | 0.843 | 0.61 | 0.68 | 0.999 | 0.592 | 1.06 | 0.948 | 0.616 | 0.876 | 0.716 | 0.775 | 0.761
1.2 | 0.85 | 0.703 | LERFIYNREEL [HLA-DPB1_Y59_F64L_YF] | 1.5 | 0.698 | 0.734 | 0.666 | 0.75 | 0.669 | 1.3 | 1.19 | 1.5 | 1.54 | 0.694 | 1.11 | 2.42
